# T1: Recombinant mouse sclerostin (mouse, UniProt Q99P68 24-211)
# T1 sequence: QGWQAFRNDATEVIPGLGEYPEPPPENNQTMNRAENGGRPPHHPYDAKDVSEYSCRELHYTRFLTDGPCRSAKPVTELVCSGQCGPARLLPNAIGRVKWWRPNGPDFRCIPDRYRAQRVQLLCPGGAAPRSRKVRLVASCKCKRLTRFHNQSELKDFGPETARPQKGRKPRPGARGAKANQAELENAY
# B1: mabB//mabA_pH3-BS01 (bispecific antibody, human IgG1, kappa)
# heavy 1: QVQLVQSGAEVKKPGASVKVSCKVSGFPIKHHFQHWVRQAPGKGLEWMGWSDPEIGDTEYASKFQGRVTMTEDTSTDTAYMELSSLRSEDTAVYYCATGHTTYKFDFWGQGTTVTVSSASTKGPSVFPLAPSSRSTSESTAALGCLVKDYFPEPVTVSWNSGALTSGVHTFPAVLQSSGLYSLSSVVTVPSSSLGTKTYTCNVDHKPSNTKVDKRVEPKSCDKTHTCPPCPAPELLGGPSVFLFPPKPKDTLMISRTPEVTCVVVDVSQEDPEVQFNWYVDGVEVHNAKTKPREEQFNSTYRVVSVLTVLHQDWLNGKEYKCKVSNKGLPSSIEKTISKAKGQPREPQVYTLPPSREEMTKNQVSLTCLVKGFYPSDIAVEWESNGQPENNYKTTPPYLDSDGSFFLYSKLTVDKSRWQQGNVFSCSVMHEALHNHYTQESLSLSP
# light 1: DIQMTQSPSSLSASVGDRVTITCKASQDVHTAVAWYQQKPGKAPKLLIYWASTRWTGVPSRFSGSGSGTDFTLTISSLQPEDFATYYCQQYSDYHWTFGGGTKVEIKRTVAAPSVFIFPPSDEQLKSGTASVVCLLNNFYPREAKVQWKVDNALQSGNSQESVTEQDSKDSTYSLSSTLTLSKADYEKHKVYACEVTHQGLSSPVTKSFNRGEC
# heavy 2: EVQLVQSGAEVKKPGASVKVSCKASGYTFTDYNMHWVRQAPGQGLEWMGEINPHSGHAGYNQKFKGRVTMTTDTSTSTAYMELRSLRSDDTAVYYCARLHYDDIHDDWYFDVWGQGTTVTVSSASTKGPSVFPLAPSSRSTSESTAALGCLVKDYFPEPVTVSWNSGALTSGVHTFPAVLQSSGLYSLSSVVTVPSSSLGTKTYTCNVDHKPSNTKVDKRVEPKSCDKTHTCPPCPAPELLGGPSVFLFPPKPKDTLMISRTPEVTCVVVDVSQEDPEVQFNWYVDGVEVHNAKTKPREEQFNSTYRVVSVLTVLHQDWLNGKEYKCKVSNKGLPSSIEKTISKAKGQPREPQVYTLPPSRKEMTKNQVSLTCLVKGFYPSDIAVEWESNGQPENNYKTTPPYLDSDGSFFLYSKLTVDKSRWQQGNVFSCSVMHEALHNHYTQKSLSLSP
# light 2: not shown
# B2: mabB//mabA_NpH3-BS01 (bispecific antibody, human IgG1, kappa)
# heavy 1: QVQLVQSGAEVKKPGASVKVSCKVSGFPIKHHFQHWVRQAPGKGLEWMGWSDPEIGDTEYASKFQGRVTMTEDTSTDTAYMELSSLRSEDTAVYYCATGDTTYKFDFWGQGTTVTVSSASTKGPSVFPLAPSSRSTSESTAALGCLVKDYFPEPVTVSWNSGALTSGVHTFPAVLQSSGLYSLSSVVTVPSSSLGTKTYTCNVDHKPSNTKVDKRVEPKSCDKTHTCPPCPAPELLGGPSVFLFPPKPKDTLMISRTPEVTCVVVDVSQEDPEVQFNWYVDGVEVHNAKTKPREEQFNSTYRVVSVLTVLHQDWLNGKEYKCKVSNKGLPSSIEKTISKAKGQPREPQVYTLPPSREEMTKNQVSLTCLVKGFYPSDIAVEWESNGQPENNYKTTPPYLDSDGSFFLYSKLTVDKSRWQQGNVFSCSVMHEALHNHYTQESLSLSP
# light 1: DIQMTQSPSSLSASVGDRVTITCKASQDVHTAVAWYQQKPGKAPKLLIYWASTRWTGVPSRFSGSGSGTDFTLTISSLQPEDFATYYCQQYHDYPWTFGGGTKVEIKRTVAAPSVFIFPPSDEQLKSGTASVVCLLNNFYPREAKVQWKVDNALQSGNSQESVTEQDSKDSTYSLSSTLTLSKADYEKHKVYACEVTHQGLSSPVTKSFNRGEC
# heavy 2: EVQLVQSGAEVKKPGASVKVSCKASGYTFTDYNMHWVRQAPGQGLEWMGEINPNSGGAGYNQKFKGRVTMTTDTSTSTAYMELRSLRSDDTAVYYCARLGYDDIYDDWYFDVWGQGTTVTVSSASTKGPSVFPLAPSSRSTSESTAALGCLVKDYFPEPVTVSWNSGALTSGVHTFPAVLQSSGLYSLSSVVTVPSSSLGTKTYTCNVDHKPSNTKVDKRVEPKSCDKTHTCPPCPAPELLGGPSVFLFPPKPKDTLMISRTPEVTCVVVDVSQEDPEVQFNWYVDGVEVHNAKTKPREEQFNSTYRVVSVLTVLHQDWLNGKEYKCKVSNKGLPSSIEKTISKAKGQPREPQVYTLPPSRKEMTKNQVSLTCLVKGFYPSDIAVEWESNGQPENNYKTTPPYLDSDGSFFLYSKLTVDKSRWQQGNVFSCSVMHEALHNHYTQKSLSLSP
# light 2: not shown
# B3: mabB//mabA_pH1-BS01 (bispecific antibody, human IgG1, kappa)
# heavy 1: QVQLVQSGAEVKKPGASVKVSCKVSGFPIKHHFQHWVRQAPGKGLEWMGWSDPEIGDTEYASKFQGRVTMTEDTSTDTAYMELSSLRSEDTAVYYCATGDTTYKFDFWGQGTTVTVSSASTKGPSVFPLAPSSRSTSESTAALGCLVKDYFPEPVTVSWNSGALTSGVHTFPAVLQSSGLYSLSSVVTVPSSSLGTKTYTCNVDHKPSNTKVDKRVEPKSCDKTHTCPPCPAPELLGGPSVFLFPPKPKDTLMISRTPEVTCVVVDVSQEDPEVQFNWYVDGVEVHNAKTKPREEQFNSTYRVVSVLTVLHQDWLNGKEYKCKVSNKGLPSSIEKTISKAKGQPREPQVYTLPPSREEMTKNQVSLTCLVKGFYPSDIAVEWESNGQPENNYKTTPPYLDSDGSFFLYSKLTVDKSRWQQGNVFSCSVMHEALHNHYTQESLSLSP
# light 1: DIQMTQSPSSLSASVGDRVTITCKASQDVHTAVAWYQQKPGKAPKLLIYWASTRWTGVPSRFSGSGSGTDFTLTISSLQPEDFATYYCQQYSDYHWTFGGGTKVEIKRTVAAPSVFIFPPSDEQLKSGTASVVCLLNNFYPREAKVQWKVDNALQSGNSQESVTEQDSKDSTYSLSSTLTLSKADYEKHKVYACEVTHQGLSSPVTKSFNRGEC
# heavy 2: EVQLVQSGAEVKKPGASVKVSCKASGYTFTDYNMHWVRQAPGQGLEWMGEINPHSGHAGYNQKFKGRVTMTTDTSTSTAYMELRSLRSDDTAVYYCARLHYDDIHDDWYFDVWGQGTTVTVSSASTKGPSVFPLAPSSRSTSESTAALGCLVKDYFPEPVTVSWNSGALTSGVHTFPAVLQSSGLYSLSSVVTVPSSSLGTKTYTCNVDHKPSNTKVDKRVEPKSCDKTHTCPPCPAPELLGGPSVFLFPPKPKDTLMISRTPEVTCVVVDVSQEDPEVQFNWYVDGVEVHNAKTKPREEQFNSTYRVVSVLTVLHQDWLNGKEYKCKVSNKGLPSSIEKTISKAKGQPREPQVYTLPPSRKEMTKNQVSLTCLVKGFYPSDIAVEWESNGQPENNYKTTPPYLDSDGSFFLYSKLTVDKSRWQQGNVFSCSVMHEALHNHYTQKSLSLSP
# light 2: not shown
# B4: mabA_NpH3-SG2 (antibody, human IgG2, kappa, V domains shown)
# VH: EVQLVQSGAEVKKPGASVKVSCKASGYTFTDYNMHWVRQAPGQGLEWMGEINPNSGGAGYNQKFKGRVTMTTDTSTSTAYMELRSLRSDDTAVYYCARLGYDDIYDDWYFDVWGQGTTVTVSS
# VL: DIQMTQSPSSLSASVGDRVTITCRASQDISNYLNWYQQKPGKAPKLLIYYHSRLLSGVPSRFSGSGSGTDFTLTISSLQPEDFATYYCHQGDTLPYTFGGGTKVEIKR
# B5: mabB//mabA_pH3 (bispecific antibody, V domains shown)
# VH 1: QVQLVQSGAEVKKPGASVKVSCKVSGFPIKHHFQHWVRQAPGKGLEWMGWSDPEIGDTEYASKFQGRVTMTEDTSTDTAYMELSSLRSEDTAVYYCATGHTTYKFDFWGQGTTVTVSS
# VL 1: DIQMTQSPSSLSASVGDRVTITCKASQDVHTAVAWYQQKPGKAPKLLIYWASTRWTGVPSRFSGSGSGTDFTLTISSLQPEDFATYYCQQYSDYHWTFGGGTKVEIK
# VH 2: EVQLVQSGAEVKKPGASVKVSCKASGYTFTDYNMHWVRQAPGQGLEWMGEINPHSGHAGYNQKFKGRVTMTTDTSTSTAYMELRSLRSDDTAVYYCARLHYDDIHDDWYFDVWGQGTTVTVSS
# VL 2: DIQMTQSPSSLSASVGDRVTITCRASHDIHNYLNWYQQKPGKAPKLLIYYTSRLLSGVPSRFSGSGSGTDFTLTISSLQPEDFATYYCQQGDTLPYTFGGGTKVEIK
# notes: Biparatopic
# B6: mabA_pH3 (antibody, V domains shown)
# VH: EVQLVQSGAEVKKPGASVKVSCKASGYTFTDYNMHWVRQAPGQGLEWMGEINPHSGHAGYNQKFKGRVTMTTDTSTSTAYMELRSLRSDDTAVYYCARLHYDDIHDDWYFDVWGQGTTVTVSS
# VL: DIQMTQSPSSLSASVGDRVTITCRASHDISNYLNWYQQKPGKAPKLLIYYTSRLLSGVPSRFSGSGSGTDFTLTISSLQPEDFATYYCQQGDTLPYTFGGGTKVEIK
# B7: mabB//mabA_pH2 (bispecific antibody, V domains shown)
# VH 1: QVQLVQSGAEVKKPGASVKVSCKVSGFPIKHHFQHWVRQAPGKGLEWMGWSDPEIGDTEYASKFQGRVTMTEDTSTDTAYMELSSLRSEDTAVYYCATGHTTYKFDFWGQGTTVTVSS
# VL 1: DIQMTQSPSSLSASVGDRVTITCKASQDVHTAVAWYQQKPGKAPKLLIYWASTRWTGVPSRFSGSGSGTDFTLTISSLQPEDFATYYCQQYSDYHWTFGGGTKVEIK
# VH 2: EVQLVQSGAEVKKPGASVKVSCKASGYTFTDYNMHWVRQAPGQGLEWMGEINPHSGHAGYNQKFKGRVTMTTDTSTSTAYMELRSLRSDDTAVYYCARLHYDDIHDDWYFDVWGQGTTVTVSS
# VL 2: DIQMTQSPSSLSASVGDRVTITCRASHDISNYLNWYQQKPGKAPKLLIYYTSRLLSGVPSRFSGSGSGTDFTLTISSLQPEDFATYYCQQGDTLPYTFGGGTKVEIK
# notes: Biparatopic
# B8: mabB//mabA_pH1 (bispecific antibody, V domains shown)
# VH 1: QVQLVQSGAEVKKPGASVKVSCKVSGFPIKHHFQHWVRQAPGKGLEWMGWSDPEIGDTEYASKFQGRVTMTEDTSTDTAYMELSSLRSEDTAVYYCATGDTTYKFDFWGQGTTVTVSS
# VL 1: DIQMTQSPSSLSASVGDRVTITCKASQDVHTAVAWYQQKPGKAPKLLIYWASTRWTGVPSRFSGSGSGTDFTLTISSLQPEDFATYYCQQYSDYHWTFGGGTKVEIK
# VH 2: EVQLVQSGAEVKKPGASVKVSCKASGYTFTDYNMHWVRQAPGQGLEWMGEINPHSGHAGYNQKFKGRVTMTTDTSTSTAYMELRSLRSDDTAVYYCARLHYDDIHDDWYFDVWGQGTTVTVSS
# VL 2: DIQMTQSPSSLSASVGDRVTITCRASHDIHNYLNWYQQKPGKAPKLLIYYTSRLLSGVPSRFSGSGSGTDFTLTISSLQPEDFATYYCQQGDTLPYTFGGGTKVEIK
# notes: Biparatopic
# Columns and labels:
# [1] = biological target: T1, Recombinant mouse sclerostin; assay: cell-based or functional assay
# [2] = biological target: T1, Recombinant mouse sclerostin; assay: cell-based or functional assay; remark: listed apart in the source
# [3] = biological target: T1, Recombinant mouse sclerostin; assay: SPR (Biacore T200), 37 C, dissociation at pH 5.8 of complex formed at pH 7.4
# Description: The affinity of anti-sclerostin variants binding to human, cynomolgus monkey (cyno), rat, or mouse sclerostin at pH 7.4 and pH 5.8 were determined at 37 degrees C. using Biacore T200 instrument (GE Healthcare). Anti-human Fc (GE Healthcare) was immobilized onto all flow cells of a CM4 sensor chip using amine coupling kit (GE Healthcare). All antibodies and analytes were prepared in ACES pH7.4 or pH 5.8 buffer containing 20 mM ACES, 150 mM NaCl, 1.2 mM CaCl₂, 0.05% Tween 20, 0.005% NaN₃. Each antibody was captured onto the sensor surface by anti-human Fc. […] Sensor surface was regenerated each cycle with 3M MgCl₂.
# The pH dependent interaction assessment was determined by a modified Biacore assay. Briefly, an additional dissociation phase at pH5.8 was integrated into the Biacore assay immediately after dissociation phase at pH7.4. This is to assess the pH-dependent dissociation between antibody and antigen from the complexes formed at pH7.4. The dissociation rate at pH5.8 buffer was determined by processing and fitting data using Scrubber 2.0 (BioLogic Software) curve fitting software.
Binder,MFI of pHrodo-Red-labelled mouse sclerostin taken up into MDCK cells expressing human Fc gamma receptor IIB and human FcRn (flow cytometry) [1] [MFI],"IC50 (read off the curve); Wnt1-induced TCF/LEF luciferase reporter in HEK293T cells, % Inhibition of mouse SOST [2] [µg/mL]",koff [3] [s⁻¹]
B1,2130,~10,
B2,653,,
B3,2430,~8,
B4,561,,
B5,,,0.0516
B6,,,0.000932
B7,,,0.0186
B8,,,0.0347

# From US20190352387A1 (Chugai, published 2019)
